From patent publication US6300103A, “Anti-microbial proteins” (Syngenta Participants AG, priority 1993, dated 2001)
Ends that are not written are not given here.

test system: C. beticola; experiment: microtiter plate bioassay of inhibition of fungal growth (absorbance at 620 nm); type: cell-based; conditions: spores of C. beticola in 96 well micro-titre plates, FIGS. 4, 7-8 (10 ug alone, 2 ug each in combination)
Protocol: The thus obtained IWF is fractionated by cation exchange chromatography on a 10 ml CM-Sepharose column (Pharmacia LKB) pre-equilibrated in starting buffer (20 mM HAc (pH 4.5)). The fractionation is performed at 4° C. at a flow rate of 25 ml/h. Fractions of 3 ml are collected. Proteins not bound to the column are removed by extensive washing of the column with starting buffer. Bound proteins are eluted by applying to the column further starting buffer comprising stepwise increased salt concentrations: viz, 0.1 M NaCg, 0.3 M NACl and 0.5 M NaCl. The absorbance at 280 nm of the eluate is measured, and fractions judged to comprise protein are tested for their anti-fungal activity against C. beticola using the microtiter plate bioassay described previously (PCT Patent Application No. PCT/DK92/00108, Publication No. WO 92/17591, now assigned to Sandoz LTD). […] The inhibition of fungal growth is measured in 96 well micro-titre plates at 620 nm, essentially as described in WO 92/17591. […] The proteins, either alone or in combination with WIN N (which is purified from barley grain or stressed barley leaf as described by Hejgaard et al (FEBS Letters, 307, 389-392 (1992)), and/or a protein having a sequence corresponding to at least one of those given in SEQ ID Nos. 4-6, are incubated with spores of C. beticola. The assay mix (240 ul) contains 100 ul of potato dextrose broth (Difco), 40 ul protein sample (or buffer control) in 100 mM Tris and 20 mM NaCl (pH 8.0) as well as approximately 400 spores in 100 ul water. The micro-titre plates are sealed with tape to avoid evaporation and contamination and subsequently incubated at room temperature on an agitator operated at 200 rpm. The absorbance at 620 nm is measured each day for 8 days and plotted for each concentration of protein vs time.

| Molecule | anti-fungal activity (inhibition of fungal growth) |
| --- | --- |
| peaks 1 and 2: anti-microbial protein of 2.5-3 kDa (dimer about 5 kDa) from sugar beet, peaks 1 and 2 in FIG. 6 (SGECNMYGRCPPGYCCSKFGYCGVGRAYCG; cysteine pairing not given here; also: dimer about 5 kDa) | significant anti-fungal activity |
| peak 3.1: anti-microbial protein of about 7 kDa from sugar beet leaf intercellular washing fluid, peak 3.1 in FIG. 3 (protein) ITCGLVASKLAPCIGYLQGAPGPSAGCCGGIKGLNSAAASPADRKTACTCLKSAATSIKGINYGKAASLPRQCGVSVPYAISPNTNCNAIH | significant anti-fungal activity |
| peak 3.2: anti-microbial protein of about 7 kDa from sugar beet leaf intercellular washing fluid, peak 3.2 in FIG. 3 (protein) ITCGLVASKLAPCIGYLQGAPGPSAGCCGGIKGLNSAAASPADRKTACTCLKSAATSMKGINYGKAASLPRQCGVSIPYAISPNTNCNAIH | significant anti-fungal activity |
